From patent publication US20240270857A1 (CHIA TAI TIANQING PHARMACEUTICAL GROUP, published 2024)
Where a chain is given by its changes, count along the chain named.

Assays:
[1] = molecular target: T1, human IL-36R overexpressed on 293T-hIL36R-NFκB cells (human, UniProt Q9HB29 20-575); assay: FACS on 293T-hIL36R-NFκB cells, ratio of MFI to background MFI
T1 construct: Entry includes the signal peptide; also called IL1RL2; IL-1Rrp2
T1 sequence: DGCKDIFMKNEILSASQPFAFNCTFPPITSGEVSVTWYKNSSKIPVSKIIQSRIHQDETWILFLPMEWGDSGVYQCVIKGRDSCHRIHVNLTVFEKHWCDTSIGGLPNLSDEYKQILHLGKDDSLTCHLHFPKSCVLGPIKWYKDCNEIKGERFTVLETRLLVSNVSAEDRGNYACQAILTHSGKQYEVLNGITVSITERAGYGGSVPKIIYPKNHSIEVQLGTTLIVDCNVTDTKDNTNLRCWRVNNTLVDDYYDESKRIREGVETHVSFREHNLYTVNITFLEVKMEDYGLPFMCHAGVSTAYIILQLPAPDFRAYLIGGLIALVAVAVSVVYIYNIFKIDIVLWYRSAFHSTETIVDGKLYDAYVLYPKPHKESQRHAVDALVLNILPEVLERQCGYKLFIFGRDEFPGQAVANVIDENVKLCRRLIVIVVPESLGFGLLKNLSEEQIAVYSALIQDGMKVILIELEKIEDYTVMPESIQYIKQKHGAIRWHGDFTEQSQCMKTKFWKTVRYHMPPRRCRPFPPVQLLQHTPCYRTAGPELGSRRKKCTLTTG
Description: After the cells was washed with PBS, the cells were resuspended with 100 μL of PBS and then the fluorescence signal was detected using a flow cytometer (BD, Accuri C6). […] The ratio was the ratio of mean fluorescence intensity (MFI) of the experimental group/the background MFI, and the resulting data were analyzed using GraphPad Prism.

[2] = molecular target: T2, CynoIL36R-ECD mFc recombinant protein (cynomolgus monkey); assay: ELISA, plate coated with CynoIL36R-ECD mFc, HRP-protein A/G, OD450
T2 construct: Made in ExpiCHO, purified on Protein A; also called cynomolgus IL-36R extracellular region with mouse antibody heavy chain Fc
T2 chain: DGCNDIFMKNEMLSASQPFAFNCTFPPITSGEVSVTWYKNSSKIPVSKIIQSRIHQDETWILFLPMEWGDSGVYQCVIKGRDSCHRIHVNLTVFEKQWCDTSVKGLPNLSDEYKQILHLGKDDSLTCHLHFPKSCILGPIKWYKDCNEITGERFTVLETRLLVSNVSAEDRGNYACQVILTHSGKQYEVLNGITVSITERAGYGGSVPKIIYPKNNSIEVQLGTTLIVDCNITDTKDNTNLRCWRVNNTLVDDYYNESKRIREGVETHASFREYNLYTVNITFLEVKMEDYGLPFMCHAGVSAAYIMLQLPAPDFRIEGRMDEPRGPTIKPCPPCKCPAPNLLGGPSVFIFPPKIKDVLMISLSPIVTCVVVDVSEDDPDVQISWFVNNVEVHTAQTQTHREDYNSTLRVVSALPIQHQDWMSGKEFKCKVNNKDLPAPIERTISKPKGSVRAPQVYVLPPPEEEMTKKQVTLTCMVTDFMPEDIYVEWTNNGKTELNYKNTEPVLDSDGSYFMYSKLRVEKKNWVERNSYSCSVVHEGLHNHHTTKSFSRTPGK
Description: The binding activity of anti-IL-36R antibodies to IL-36R was analyzed by ELISA using human IL-1Rrp2/IL-1R6 protein, His Tag (ACROBiosystems, IL2-H52H6) and CynoIL36R-ECD mFc (for detection of chimeric and humanized antibodies), and hIL36R-ECD hFc and CynoIL36R-ECD hFc protein (for detection of hybridoma antibodies) as antigens. A 96-well plate (Costar, 9018) was coated with 2 μg/mL antigen at 100 μL/well and incubated overnight at 4° C. After the 96-well plate was washed with a washing buffer (PBS containing 0.05% v/v Tween 20), a blocking buffer (PBS containing 2% bovine serum albumin) was added for blocking at 37° C. for 2 h. After the 96-well plate was washed with the washing buffer, 100 μL of the gradient diluted anti-IL-36R antibody of the present disclosure or the reference antibody BI655130 (the initial concentration of the antibody was 66 nM, 4-fold gradient dilution) was added to each well, and the plate was incubated at room temperature for 1 h. After the 96-well plate was washed with the washing buffer, 100 μL of horseradish peroxidase-conjugated recombinant protein A/G (TheroScientific, 32490) was added to each well, and the plate was incubated at room temperature for 1 h. After the 96-well plate was washed with the washing buffer, 100 μL of a TMB solution (Thermo, 00-4201-56) was added to each well, and the plate was incubated at room temperature for 2 min. Finally, 100 μL of a stop solution (2 N H₂SO₄) was added to each well to stop the reaction. Absorbance was read at 450 nm using a microplate reader (PE, Envision), the resulting data was analyzed using GraphPad Prism, and EC₅₀ was calculated. Binding EC₅₀ of the chimeric anti-IL-36R antibodies to hIL-36R in an ELISA assay is shown in FIG. 1. and binding EC₅₀ of the chimeric anti-IL-36R antibodies to CynoIL-36R in an ELISA assay is shown in FIG. 2. The binding of BI655130 is shown as a control, and the binding of IgG4 is shown as a negative control.

[3] = molecular target: T1, human IL-36R overexpressed on …; assay: cell-based or functional assay
[4] = molecular target: T3, IL-36R naturally expressed on OVCAR8 cells and on normal human epidermal keratinocytes (NHK cells) (human, UniProt Q9HB29 20-575); assay: cell-based or functional assay
T3 sequence (looked up): T1 sequence

B1: chimeric 72C1 antibody (antibody, human IgG4 S228P, kappa)
heavy: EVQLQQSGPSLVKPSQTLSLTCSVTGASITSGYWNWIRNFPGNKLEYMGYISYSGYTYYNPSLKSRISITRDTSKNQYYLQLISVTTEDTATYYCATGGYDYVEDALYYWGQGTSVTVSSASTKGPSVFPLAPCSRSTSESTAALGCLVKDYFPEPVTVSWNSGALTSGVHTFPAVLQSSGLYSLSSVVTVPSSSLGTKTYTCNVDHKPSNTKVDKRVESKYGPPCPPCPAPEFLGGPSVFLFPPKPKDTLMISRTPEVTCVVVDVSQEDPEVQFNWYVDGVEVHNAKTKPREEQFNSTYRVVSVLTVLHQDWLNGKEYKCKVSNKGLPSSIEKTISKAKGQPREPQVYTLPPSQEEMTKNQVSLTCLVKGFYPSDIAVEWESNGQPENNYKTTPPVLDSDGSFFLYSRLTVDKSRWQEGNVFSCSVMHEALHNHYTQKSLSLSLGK
light: EILLTQSPAIMSATLGEKVTMSCRASSNVRYMYWYQLKSGASPKLWIYLTSNLASGVPARFSGSGSGTSYSLTISSVEAEDAATYFCQQFTTSPYTFGGGTKLEIKRTVAAPSVFIFPPSDEQLKSGTASVVCLLNNFYPREAKVQWKVDNALQSGNSQESVTEQDSKDSTYSLSSTLTLSKADYEKHKVYACEVTHQGLSSPVTKSFNRGEC
notes: Mouse variable regions on human IgG4 / kappa; also called xi72C1
In the case of B1, the EC50 [1] is reported as 2.52 nM and the EC50 [2] is reported as 3.02 nM.

B2: hz84C4-1.1 (antibody, human IgG4 S228P, kappa, V domains shown)
VH: QVQLVQSGAEVKKPGASVKVSCKASGYFFTSYWMNWVRQAPGQGLEWMGMIHPYDSETRYAQKFQGRVTMTVDKSTSTVYMELSSLRSEDTAVYYCASSTTAFAYWGQGTLVTVSS
VL: DIQMTQSPSSLSASVGDRVTITCRASQDIGNALNWYQQKPGKAPKRLIYATSSLDPGVPSRFSGSRSGTDFTLTISSLQPEDFATYYCLQYASSPYTFGQGTKVEIKR
notes: Humanized, human IgG4 / kappa
In the case of B2, the “IC50 (M); hIL36α; NFκB-luciferase” value [3] is reported as 8.82e-10 M, the “IC50 (M); hIL36αβγ; NFκB-luciferase” value [3] is reported as 1.82e-09 M and the “IC50 (M); hIL36β; NFκB-luciferase” value [3] is reported as 9.28e-10 M. For the same binder, the “IC50 (M); hIL36γ; NFκB-luciferase” value [3] was 5.76e-10 M, the “Maximum inhibition rate %; hIL36α; NFκB-luciferase” value [3] was 84.1% and the “Maximum inhibition rate %; hIL36αβγ; NFκB-luciferase” value (from here on “Maximum inhibition rate %; hIL36αβγ”) [3] was 61.2%. The “Maximum inhibition rate %; hIL36β; NFκB-luciferase” value (from here on “Maximum inhibition rate %; hIL36β”) [3] was 85.3% and the “Maximum inhibition rate %; hIL36γ; NFκB-luciferase” value (“Maximum inhibition rate %; hIL36γ” below) [3] was 83.5%.

B3: hz84C4-2.5 (antibody, human IgG4 S228P, kappa, V domains shown)
VH: B2 VH with A24V, R38N, Y60L, Q65K
VL: B2 VL with Y36L, F71Y
notes: Humanized, human IgG4 / kappa
In the case of B3, the “IC50 (M); hIL36α; NFκB-luciferase” value [3] is reported as 9.38e-10 M, the “IC50 (M); hIL36αβγ; NFκB-luciferase” value [3] is reported as about 1.55e-09 M and the “IC50 (M); hIL36β; NFκB-luciferase” value [3] is reported as 7.66e-10 M. The “IC50 (M); hIL36γ; NFκB-luciferase” value [3] was 3.5e-10 M, the “Maximum inhibition rate %; hIL36α; NFκB-luciferase” value [3] was 85.7% and the “Maximum inhibition rate %; hIL36αβγ” value [3] was 54.4%. For the same binder, the “Maximum inhibition rate %; hIL36β” value [3] was 83.1% and the “Maximum inhibition rate %; hIL36γ” value [3] was 84.7%.

B4: chimeric 84C4 antibody (antibody, human IgG4 S228P, kappa)
heavy: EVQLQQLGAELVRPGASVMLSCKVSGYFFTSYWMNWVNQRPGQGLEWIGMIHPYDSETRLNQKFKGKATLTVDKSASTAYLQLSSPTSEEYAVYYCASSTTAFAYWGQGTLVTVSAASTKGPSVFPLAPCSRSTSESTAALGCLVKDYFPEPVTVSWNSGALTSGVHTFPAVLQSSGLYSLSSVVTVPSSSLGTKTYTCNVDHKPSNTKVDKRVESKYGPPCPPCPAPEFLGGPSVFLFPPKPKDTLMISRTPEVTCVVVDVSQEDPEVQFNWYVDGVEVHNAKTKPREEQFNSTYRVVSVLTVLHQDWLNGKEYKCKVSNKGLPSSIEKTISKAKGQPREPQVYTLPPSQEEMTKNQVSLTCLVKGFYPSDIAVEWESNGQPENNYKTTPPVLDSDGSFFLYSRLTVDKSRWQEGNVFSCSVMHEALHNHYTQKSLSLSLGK
light: DILMTQSPSSLSASLGERVSLTCRASQDIGNALNWLQQAPDGTIKRLIYATSSLDPGVPKRFSGSRSGSDYSLTISSLASEDFVYYYCLQYASSPYTFGGGTKLEIKRTVAAPSVFIFPPSDEQLKSGTASVVCLLNNFYPREAKVQWKVDNALQSGNSQESVTEQDSKDSTYSLSSTLTLSKADYEKHKVYACEVTHQGLSSPVTKSFNRGEC
notes: Mouse variable regions on human IgG4 / kappa; also called xi84C4
B4 was tested, and the “IC50; IL-8 production of NHK cells stimulated with hIL36α, inhibition rate %” value [4] was 1.02 nM, the EC50 [1] was 0.886 nM and the EC50 [2] was 21.9 nM.

B5: BI655130 (antibody, human IgG1, kappa, L234A L235A)
heavy: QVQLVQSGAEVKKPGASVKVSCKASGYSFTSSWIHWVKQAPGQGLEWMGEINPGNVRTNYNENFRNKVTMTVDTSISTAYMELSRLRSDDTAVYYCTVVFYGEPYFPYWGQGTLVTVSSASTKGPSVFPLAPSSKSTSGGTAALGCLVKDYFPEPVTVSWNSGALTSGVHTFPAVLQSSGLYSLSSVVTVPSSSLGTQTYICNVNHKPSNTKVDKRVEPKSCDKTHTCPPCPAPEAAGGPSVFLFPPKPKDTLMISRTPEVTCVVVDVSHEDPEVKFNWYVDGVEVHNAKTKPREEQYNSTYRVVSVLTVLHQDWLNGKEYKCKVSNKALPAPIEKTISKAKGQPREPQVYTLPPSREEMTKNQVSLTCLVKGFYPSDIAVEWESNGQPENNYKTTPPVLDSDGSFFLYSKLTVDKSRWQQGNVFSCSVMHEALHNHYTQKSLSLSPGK
light: QIVLTQSPGTLSLSPGERATMTCTASSSVSSSYFHWYQQKPGQAPRLWIYRTSRLASGVPDRFSGSGSGTDFTLTISRLEPEDAATYYCHQFHRSPLTFGAGTKLEIKRTVAAPSVFIFPPSDEQLKSGTASVVCLLNNFYPREAKVQWKVDNALQSGNSQESVTEQDSKDSTYSLSSTLTLSKADYEKHKVYACEVTHQGLSSPVTKSFNRGEC
notes: also called Spesolimab
For B5, the “IC50 (M); hIL36α; NFκB-luciferase” value [3] was 1.75e-09 M, the “IC50 (M); hIL36αβγ; NFκB-luciferase” value [3] was 3.27e-09 M and the “IC50 (M); hIL36β; NFκB-luciferase” value [3] was 2.21e-09 M. For the same binder, the “IC50 (M); hIL36γ; NFκB-luciferase” value [3] was 1.1e-09 M, the “Maximum inhibition rate %; hIL36α; NFκB-luciferase” value [3] was 83.6% and the “Maximum inhibition rate %; hIL36αβγ” value [3] was 63.3%. The “Maximum inhibition rate %; hIL36β” value [3] was 85.2%, the “Maximum inhibition rate %; hIL36γ” value [3] was 81% and the “IC50; IL-8 production of NHK cells stimulated with hIL36α, inhibition rate %” value [4] was 0.214 nM. For the same binder, the EC50 [1] was 1.33 nM and the EC50 [2] was 1.89 nM.
